Results taken from the supplement of paper PMC10567573.

B1: SLC2A12 (parent)
chain: TRIMIGLTLVFFVQITGQPNILFY
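Also: lentivirally expressed fusions sorted by FACS into six bins by GFP to DsRed ratio, PSI derived from sequencing read proportions per bin multiplied by bin number.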

Variants of: B1
Assay: protein stability index of a GFP-peptide fusion (GPS, HEK-293T) (PSI 1-6); higher = more stable
Conditions: c terminus: a fixed tail appended
TRIMIGLTDVFFVQITGQPNILFY [L9D] gave a protein stability index of 3.04. TRIMIGLTRVFFVQITGQPNILFY [L9R] gave a protein stability index of 3.25. With TRIMIGLTIVFFVQITGQPNILFY [L9I] the protein stability index was 3.09. TRIMIGLYLVFFVQITGQPNILFY [T8Y] showed a protein stability index of 2.64. For TRIMIGLSLVFFVQITGQPNILFY [T8S], the protein stability index was 2.71. For TRIMIGLVLVFFVQITGQPNILFY [T8V], the protein stability index was 3.33. In the case of TRIMIGLTLVFFAQITGQPNILFY [V13A], the protein stability index is reported as 3.24. TRIMIGLTLVFFTQITGQPNILFY [V13T] showed a protein stability index of 3.18. With TRIMIGLTLVFFYQITGQPNILFY [V13Y] the protein stability index was 3.14. With TRIMIGLTLVFFRQITGQPNILFY [V13R] the protein stability index was 2.87. TRIMIGLTLVFFKQITGQPNILFY [V13K] showed a protein stability index of 2.19. Work on TRIMIGLTLVFFPQITGQPNILFY [V13P] yielded a protein stability index of 3.01. With TRIMIGLTLVFFWQITGQPNILFY [V13W] the protein stability index was 2.85. TRIMIGLTLVFFEQITGQPNILFY [V13E] showed a protein stability index of 2.15. In the case of TRIMIGLTLVFFGQITGQPNILFY [V13G], the protein stability index is reported as 3.16. With TRIMIGLTLVFFSQITGQPNILFY [V13S] the protein stability index was 2.7. Work on TRIMIGLTLVFFHQITGQPNILFY [V13H] yielded a protein stability index of 3.1. TRIMIGLTLVFFNQITGQPNILFY [V13N] showed a protein stability index of 3.86. In the case of TRIMIGLTLVFFMQITGQPNILFY [V13M], the protein stability index is reported as 3.17. TRIMIGLTLVFFLQITGQPNILFY [V13L] gave a protein stability index of 2.69. TRIMIGLTLVFFIQITGQPNILFY [V13I] gave a protein stability index of 3.48. In the case of TRIMIGLTLVFFQQITGQPNILFY [V13Q], the protein stability index is reported as 2.33. With TRIMIGLTLVFFDQITGQPNILFY [V13D] the protein stability index was 2.46. TRIMIGLTLVYFVQITGQPNILFY [F11Y] gave a protein stability index of 3.02. For TRIMIGLTLVEFVQITGQPNILFY [F11E], the protein stability index was 1.63. With TRIMIGLTLVQFVQITGQPNILFY [F11Q] the protein stability index was 3.49. TRIMIGLTLVSFVQITGQPNILFY [F11S] showed a protein stability index of 3.83. Work on TRIMIGLTLVKFVQITGQPNILFY [F11K] yielded a protein stability index of 2.68. With TRIMIGLTLVCFVQITGQPNILFY [F11C] the protein stability index was 3.27. With TRIMIGLTLVPFVQITGQPNILFY [F11P] the protein stability index was 2.09. With TRIMIGLTLVLFVQITGQPNILFY [F11L] the protein stability index was 2.5. Work on TRIMIGLTLVTFVQITGQPNILFY [F11T] yielded a protein stability index of 3.22. For TRIMIGLTLVGFVQITGQPNILFY [F11G], the protein stability index was 2.78. TRIMIGLTLVDFVQITGQPNILFY [F11D] gave a protein stability index of 2.15. With TRIMIGLTLVNFVQITGQPNILFY [F11N] the protein stability index was 2. Work on TRIMIGLTLVRFVQITGQPNILFY [F11R] yielded a protein stability index of 2.16. Work on TRIMIGLTLVIFVQITGQPNILFY [F11I] yielded a protein stability index of 3.63. Work on TRIMIGLTLVFFVQATGQPNILFY [I15A] yielded a protein stability index of 1.54. Variant TRIMIGLTLVFFVQFTGQPNILFY [I15F] has a protein stability index of 3.46. TRIMIGLTLVFFVQHTGQPNILFY [I15H] showed a protein stability index of 2. TRIMIGLTLVFFVQRTGQPNILFY [I15R] gave a protein stability index of 2.93. TRIMIGLTLVFFVQLTGQPNILFY [I15L] showed a protein stability index of 2.74. Variant TRIMIGLTLVFFVQCTGQPNILFY [I15C] has a protein stability index of 3.47. Variant TRIMIGLTLVFFVQGTGQPNILFY [I15G] has a protein stability index of 1.73. TRIMIGLTLVFFVQSTGQPNILFY [I15S] gave a protein stability index of 2.98. TRIMIGLTLVFFVQQTGQPNILFY [I15Q] showed a protein stability index of 3.39. Variant TRIMIGLTLVFFVQMTGQPNILFY [I15M] has a protein stability index of 2.5. In the case of TRIMIGLTLVFFVQYTGQPNILFY [I15Y], the protein stability index is reported as 3.97. TRIMIGLTLVFFVQTTGQPNILFY [I15T] gave a protein stability index of 3.01. With TRIMIGLTLVFFVQPTGQPNILFY [I15P] the protein stability index was 3.74. TRIMIGLTLVFFVQITGQPNMLFY [I21M] gave a protein stability index of 1.89. With TRIMIGLTLVFFVQITGQPNGLFY [I21G] the protein stability index was 4.22. TRIMIGLTLVFFVQITGQPNFLFY [I21F] showed a protein stability index of 3.31. In the case of TRIMIGLTLVFFVQITGQPNDLFY [I21D], the protein stability index is reported as 3.69. In the case of TRIMIGLTLVFFVQITGQPNQLFY [I21Q], the protein stability index is reported as 2.1. Work on TRIMIGLTLVFFVQITGQPNELFY [I21E] yielded a protein stability index of 3.88. Work on TRIMIGLTLVFFVQITGQPNHLFY [I21H] yielded a protein stability index of 2.49. TRIMIGLTLVFFVQITGQPNCLFY [I21C] gave a protein stability index of 2.42. In the case of TRIMIGLTLVFFVQITGQPNLLFY [I21L], the protein stability index is reported as 2.73. TRIMIGLTLVFFVQITGQPNRLFY [I21R] showed a protein stability index of 2.73. With TRIMIGLTLVFFVQITGQPNALFY [I21A] the protein stability index was 2.81. Work on TRIMIGLTLVFFVQITGQPNNLFY [I21N] yielded a protein stability index of 2.52. In the case of TRIMIGLTLVFFVQITGQPNPLFY [I21P], the protein stability index is reported as 3.17. Work on TRIMIGLTLVFAVQITGQPNILFY [F12A] yielded a protein stability index of 4.95. TRIMIGLTLVFMVQITGQPNILFY [F12M] gave a protein stability index of 2.49. Work on TRIMIGLTLVFKVQITGQPNILFY [F12K] yielded a protein stability index of 2.95. TRIMIGLTLVFVVQITGQPNILFY [F12V] showed a protein stability index of 3.31. With TRIMIGLTLVFHVQITGQPNILFY [F12H] the protein stability index was 3.17. TRIMIGLTLVFLVQITGQPNILFY [F12L] showed a protein stability index of 3.53. With TRIMIGLTLVFQVQITGQPNILFY [F12Q] the protein stability index was 3.16. Variant TRIMIGLTLVFPVQITGQPNILFY [F12P] has a protein stability index of 4.16. TRIMIGLTLVFNVQITGQPNILFY [F12N] showed a protein stability index of 3.88. TRIMIGLTLVFDVQITGQPNILFY [F12D] gave a protein stability index of 2.7. With TRIMIGLTLVFSVQITGQPNILFY [F12S] the protein stability index was 3.48. With TRIMIGLTLVFIVQITGQPNILFY [F12I] the protein stability index was 2.79. TRIMIGLTLVFEVQITGQPNILFY [F12E] showed a protein stability index of 2.77. TRIMIGLTLVFYVQITGQPNILFY [F12Y] gave a protein stability index of 3.14. With TRIMIGLTLVFWVQITGQPNILFY [F12W] the protein stability index was 2.48. With TRIMIGLTLKFFVQITGQPNILFY [V10K] the protein stability index was 3.44. TRIMIGLTLNFFVQITGQPNILFY [V10N] gave a protein stability index of 3.65. TRIMIGLTLFFFVQITGQPNILFY [V10F] gave a protein stability index of 3.06. With TRIMIGLTLTFFVQITGQPNILFY [V10T] the protein stability index was 3.36. Work on TRIMIGLTLWFFVQITGQPNILFY [V10W] yielded a protein stability index of 2.58. TRIMIGLTLLFFVQITGQPNILFY [V10L] showed a protein stability index of 2.4. Variant TRIMIGLTLCFFVQITGQPNILFY [V10C] has a protein stability index of 2.69. For TRIMIGLTLAFFVQITGQPNILFY [V10A], the protein stability index was 3.99. For TRIMIGLTLHFFVQITGQPNILFY [V10H], the protein stability index was 3.39. Work on TRIMIGLTLRFFVQITGQPNILFY [V10R] yielded a protein stability index of 2.5. For TRIMIGLTLYFFVQITGQPNILFY [V10Y], the protein stability index was 2.56. With TRIMIGLTLGFFVQITGQPNILFY [V10G] the protein stability index was 3.27. TRIMIGLTLDFFVQITGQPNILFY [V10D] gave a protein stability index of 1.78. Variant TRIMIGLTLPFFVQITGQPNILFY [V10P] has a protein stability index of 2.51. Variant TRIMIGLTLMFFVQITGQPNILFY [V10M] has a protein stability index of 3.53. For TRIMIGLTLEFFVQITGQPNILFY [V10E], the protein stability index was 3.41.
